This note sets out measurements from patent US20250136699A1 (JIANGSU BIOJETAY BIOTECHNOLOGY, published 2025).

As usually defined, the EC50 is the concentration that produces a half-maximal response. The IC50 is the point on the concentration scale where inhibition reaches its midpoint. The EC50 (read off the curve) is the concentration needed to bring the measured effect to its halfway point.

Where two headings read alike, the source gives them in different places.

The target of assay [1] is human FcRn (human FCGRT and B2M) on stably transfected MDCK cells (human) (UniProt P55899). Description: cell-based or functional assay.
Chain of human FcRn (human FCGRT and B2M) on stably transfected MDCK cells (human) (P55899 24-365, chain 1 of 2): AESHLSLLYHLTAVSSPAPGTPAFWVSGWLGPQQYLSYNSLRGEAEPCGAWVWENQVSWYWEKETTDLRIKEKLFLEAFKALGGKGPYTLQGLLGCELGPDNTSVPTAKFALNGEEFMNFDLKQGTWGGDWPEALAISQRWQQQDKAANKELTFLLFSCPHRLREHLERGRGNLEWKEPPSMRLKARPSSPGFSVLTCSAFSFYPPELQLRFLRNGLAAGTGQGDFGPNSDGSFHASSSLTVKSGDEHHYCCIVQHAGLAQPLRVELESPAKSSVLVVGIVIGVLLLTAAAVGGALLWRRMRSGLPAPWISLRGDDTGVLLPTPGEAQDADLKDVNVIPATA
Chain of human FcRn (human FCGRT and B2M) on stably transfected MDCK cells (human) (P61769 21-119, chain 2 of 2, further chain): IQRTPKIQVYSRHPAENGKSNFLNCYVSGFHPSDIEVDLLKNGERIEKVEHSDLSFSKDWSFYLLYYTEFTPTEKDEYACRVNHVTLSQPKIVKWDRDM
Assay [2] has the same target. As to the kind of experiment: cell-based or functional assay. The source holds these as a separate data set.
For assay [3], the target named is Human recombinant FCGRT & B2M Heterodimer Protein (hFcRn) (human) (UniProt P55899). Description: ELISA, hFcRn coated at 1 ug/mL, antibody titrated, anti-human IgG Fab-HRP. On the technique in general: ELISA stands for enzyme-linked immunosorbent assay.
Chain of Human recombinant FCGRT & B2M Heterodimer Protein (hFcRn) (human) (P55899 24-297 limits assumed, chain 1 of 2): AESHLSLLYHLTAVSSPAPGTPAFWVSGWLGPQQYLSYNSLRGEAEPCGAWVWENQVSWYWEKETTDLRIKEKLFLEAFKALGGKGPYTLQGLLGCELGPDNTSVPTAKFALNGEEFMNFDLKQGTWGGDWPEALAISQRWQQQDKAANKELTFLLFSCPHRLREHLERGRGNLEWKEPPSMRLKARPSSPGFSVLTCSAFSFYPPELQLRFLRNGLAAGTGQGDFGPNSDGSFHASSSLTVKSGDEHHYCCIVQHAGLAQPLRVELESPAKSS
Chain of Human recombinant FCGRT & B2M Heterodimer Protein (hFcRn) (human) (P61769 21-119 limits assumed, chain 2 of 2, further chain): as the sequence (P61769 21-119, chain 2 of 2, further chain) above
Assay [4] has as its target T1, human FCGRT (human, UniProt P55899 24-297, biotinylated (Avi tag) in the blocking assays).
T1 construct: Alpha chain alone, expressed in Expi293 cells with His and Avi tags; also called FCGRT of human FcRn protein; biotinylated human FCGRT; not shown: His tag and Avi tag
As to the kind of experiment: competition ELISA: human IgG coated, biotinylated human FCGRT plus antibody, SA-HRP.

For assay [5], the target named is T1, human FCGRT. Described as above. This is another data set of the same source.
In assay [6] the target is T1, human FCGRT. Description: ELISA: human FCGRT coated, antibody titrated, goat anti-human IgG Fab-HRP, OD450.
Assay [7] deals with T1, human FCGRT. The assay is described as above. This is another data set of the same source.
Assay [8] concerns the target T2, Cynomolgus monkey FcRn-alpha (cynomolgus monkey, UniProt Q8SPV9 24-297, limits assumed).
T2 construct: The printed entry looks like the full-length precursor (signal peptide, transmembrane and cytoplasmic parts); also called cynoFcRn; not shown: His tag and Avi tag
Description: ELISA: cynoFcRn coated, antibody titrated, goat anti-human IgG Fab-HRP, OD450.

Assay [9] deals with human FcRn (human FCGRT and B2M) on stably transfected MDCK cells (human, UniProt P55899 24-365; P61769 21-119). Description: cell-based or functional assay.
Chain of human FcRn (human FCGRT and B2M) on stably transfected MDCK cells (P55899 24-365, chain 1 of 2): as the sequence (P55899 24-365, chain 1 of 2) above
Chain of human FcRn (human FCGRT and B2M) on stably transfected MDCK cells (P61769 21-119, chain 2 of 2): as the sequence (P61769 21-119, chain 2 of 2, further chain) above
For another assay, the target named is T3, human B2M (human, UniProt P61769 21-119, limits assumed).
T3 construct: also called beta-2-microglobulin; not shown: His tag and Avi tag
T3 sequence (P61769 21-119 limits assumed): as the sequence (P61769 21-119, chain 2 of 2, further chain) above
As to the kind of experiment: ELISA: human B2M coated, antibody titrated, OD450.

For assay [10], the target named is T4, Rattus norvegicus FcRn-alpha (rat, UniProt P13599 23-298).
T4 construct: Alpha chain alone; also called rFcRn; rat FcRn; not shown: His tag and Avi tag
T4 sequence: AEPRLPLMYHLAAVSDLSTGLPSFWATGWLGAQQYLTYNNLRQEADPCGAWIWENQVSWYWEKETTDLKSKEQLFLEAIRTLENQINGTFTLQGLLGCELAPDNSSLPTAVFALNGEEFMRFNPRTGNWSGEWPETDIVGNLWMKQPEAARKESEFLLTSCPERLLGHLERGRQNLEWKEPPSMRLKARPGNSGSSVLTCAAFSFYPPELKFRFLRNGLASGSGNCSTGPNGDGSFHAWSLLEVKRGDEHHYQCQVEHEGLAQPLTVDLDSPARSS
Description: ELISA: rFcRn coated, antibody titrated, goat anti-human IgG Fab-HRP, OD450.

Assay [11] concerns the target T1, human FCGRT. Description: ELISA: human FCGRT coated, antibody titrated, goat anti-human IgG Fab-HRP, OD450. The source holds these as a separate data set.
Description: (§1) Measurement of the binding specificity of anti-FcRn antibodies to FCGRT and B2M by EILSA: Briefly, human FCGRT or B2M was coated on a 96-well plate at 4° C. overnight, after removing the coating solution, a blocking buffer containing 1% BSA was added into the plates followed by incubation at room temperature for 1 hour to block unspecific binding. Plates were then washed with wash buffer, and serial dilutions of anti-FcRn antibodies were added to the wells and incubated at room temperature for 1 hour. […] The wells were washed before adding 100 μL/well of TMB and incubated for 5-10 minutes at 37° C. 2M H₂SO₄ was used to stop the reaction. […] The ELISA results (OD450) were analyzed, and the binding curves were generated by Graphpad PRISM.
For assay [12], the target named is T5, Human recombinant FCGRT & B2M Heterodimer Protein (hFcRn) (human, UniProt P55899 24-297; P61769 21-119).
T5 construct: Bought protein; also called human FcRn
T5 sequence (P55899 24-297 limits assumed, chain 1 of 2): as the sequence (P55899 24-297 limits assumed, chain 1 of 2) above
T5 sequence (P61769 21-119 limits assumed, chain 2 of 2): as the sequence (P61769 21-119, chain 2 of 2, further chain) above
As to the kind of experiment: ELISA: hFcRn coated (1 ug/mL), antibody (IgG4) titrated, goat anti-human IgG Fab-HRP, OD450.
Description: hFcRn binding of purified full-length chimeric antibodies: The hFcRn antigen binding ELISA was performed on the purified full-length chimeric antibodies (reformatted as IgG4). Briefly, plates were coated overnight at 4° C. with 1 μg/mL of hFcRn (cat #CT009-H08H) in PBS. After removing the coating solution, the wells were blocked by adding blocking buffer and incubated at room temperature for 1 hour. Plates were then washed 6 times with wash buffer. Serial dilutions of purified antibodies in PBS were added to individual wells followed by incubation at room temperature for 1 hour. Plates were washed 6 times with wash buffer. […] Plates were incubated at 37° C. for 1 hour, washed 6 times with wash buffer, and developed for 5-10 minutes with 50 L/well of TMB substrate, then quenched with 2M H₂SO₄. […] The ELISA results (OD450) were analyzed, and the binding curves were generated by Graphpad PRISM.

Assay [13] deals with T1, human FCGRT. Description: blocking ELISA: human IgG coated, biotinylated human FCGRT plus titrated antibody, SA-HRP, OD450; blocked ligand: human IgG.
Description: After removing the coating solution, the wells were blocked with a blocking buffer containing 1% BSA at room temperature for 1 hour. Plates were then washed with wash buffer. […] After incubation, 100 μL of SA-HRP (1:20,000) was added to each well and incubated for 1 hour at 37° C. The wells were washed before adding 100 μL/well of TMB and incubated for 5-10 minutes at 37° C. 2M H₂SO₄ was used to stop the reaction. […] The ELISA results (OD450) were analyzed, and the binding curves were generated by PRISM.

T1 sequence (P55899 24-297 limits assumed): as the sequence (P55899 24-297 limits assumed, chain 1 of 2) above
T2 sequence (Q8SPV9 24-297 limits assumed): as the sequence (P55899 24-297 limits assumed, chain 1 of 2) above, with N39D, E44Q, G99S, S189G, S190N, L217M, S269T counted along it
Description for human B2M: as §1

B1: Rozanolixizumab (antibody, part only; not given: Constant regions, V domains shown, not shown: another chain or arm of the molecule)
VH: EVPLVESGGGLVQPGGSLRLSCAVSGFTFSNYGMVWVRQAPGKGLEWVAYIDSDGDNTYYRDSVKGRFTISRDNAKSSLYLQMNSLRAEDTAVYYCTTGIVRPFLYWGQGTLVTVSS
VL: DIQMTQSPSSLSASVGDRVTITCKSSQSLVGASGKTYLYWLFQKPGKAPKRLIYLVSTLDSGIPSRFSGSGSGTEFTLTISSLQPEDFATYYCLQGTHFPHTFGQGTKLEIK
For the molecule B1, the IgG Recycle IC50 in assay [1] amounted to 7.8 nM; in [2] it was 11.8 nM. Further, in [3], the EC50 stood at 1.04 nM. In addition, the results for the IC50 with human FCGRT [4] and in the assay with human FCGRT [5] were 10.9 nM and 11.6 nM, respectively. Besides, the EC50 (read off the curve) in the assay with human FCGRT [6] was found to be 10 nM; with human FCGRT [7], 0.1 nM; in assay [8], 0.2 nM.

B2: ZLP37 (antibody, V domains shown)
VH: EVQLQQSGVELARPGASVKMSCKASGYTFSSYAMQWVKKRPGQGLEWIGYINPGTGYTNYNQKFKDKATLTADKSSSTAYMHLSSLTSEDSAVYFCARGGGLRGAMDYWGQGTSVTVSS
VL: DIVLTQSPALMSASPGEKVTMTCSANSSVNYMYWYQQKPGSSPKLWIYSTSNLASGVPARFSGSGSGTSYSLTISSMEAEDAATYYCHQRSSYPWTFGGGTKLEIK
notes: Full-length chimeric antibody with human IgG1 or IgG4 heavy constant and human kappa or lambda light constant domain
B2: the “IgG Recycle IC50” value in [9] came out at 3.12 nM. The binding result (with human B2M; in assay [10]) was “no binding (tested: about 700 nM (Log[Ab] about 2.8))” each time. Also, the figures for the half-maximal effective concentration (EC50 (read off the curve)) (in [8]; in the assay with human FCGRT [11]; in assay [12]) were approximately 6 nM, approximately 20 nM and approximately 9 nM, respectively. Moreover, in the assay with human FCGRT [13], the “IC50 (read off the curve)” value is approximately 40 nM.
